According to the nanobody polyreactivity screen of Harvey et al. (2022):

Assay: yeast display, Sf9 membrane polyspecificity reagent, FACS + sequencing; frameworks hold sequencing errors
In short: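 Sorting gates, low and high (top ~1%), were placed on anti-HA fluorescence to track expression and on streptavidin fluorescence to track reagent binding. A clone's polyreactivity label is taken from the gate it came out of. The reagent was 10% biotinylated, detergent-solubilized Sf9 membrane, applied for 1 hour at 4 °C to galactose-induced yeast display cells.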

Row | Sequence | polyreactivity (PSR sort gate)
1 | QVQLVESGGVLVQAGGSLRLSCAASGSTFYRYAMGWYRQAPGKERELVAANTRGSRTYYADSVKGRFTISRDNAKNTVYLQMNSLKPEDTAVYYCAAYRDYGSYGSWGQGTQVTVSS | high polyreactivity
2 | QVQLVESGGGLVQAGGSLRLSCAASGRIFRFYAMGWYRQAPGKDRELVAAISSRGGSTYYADSVTGRFTISRDNAKNTVYLQMNSLKPEDTAVYYCAKRSQKAYKYRDYRFDYWGQGTQVTVSS | high polyreactivity
3 | QVQLVESAGGLVQAGGSLRLSCAASGSTFGANAMGWYRQAPGKEREYVAAISRSGVRTYYADSVKGRFTISRDNAKNTVYLQMNSLKPEDTAVYYCAADGYWWTYTRYDYWGQGTQVTVSS | low polyreactivity
4 | QVQLVESGGGLVQAGGSLRLSCAASGFTFAYYAMGWYRQAPGKERELVAAISWTGGSTYYADSVKGRFTISRDNAKNTVYLQMNSLKPEDTAVYYCAARGYRYRSYDYWGQGTQVTVSS | high polyreactivity
5 | QVQLVESGGGLVQAGGSLRLSCAASGSTFDYYAMGWSRQAPGKERELVAGITGGGSTYYADSVKGRFTISRDNAKNTVYLQMNSLKPEDTAVYYCNAGPALRYDYWGQGTQVTVSS | low polyreactivity
6 | QVQLVESGGGLVQAGGSLRLSCAASGSIFGYNAKGWYRQAPGKERELVAAINYRGGSTYYADSVKGRFTISRDNAKNTVYLQMNSLKPEDTAVYYCAARYWKDGSTYDYWGQGTQVTVSS | high polyreactivity
7 | QVQLVESGGGLVQAGGSLRLSCAASGSILSYNAMGWSRQAPGKERELVATITGTGGSTRYADSVKGRFTISRDNAKNTVYLQMNSLKPEDTAVYYCATAAWWYYRIYHEFGYWGQGTQVTVSS | high polyreactivity
8 | QVQLVESGGGLVQARGSLRLICAASGRTFSYNTMGWYRQAPGKERDLVASITRSGGSTYYSDSVKGRFTISRDNAKNTVYLQMNSLKPEDTAVYYCAADSYPGSTYYDSLDYWGQGTQVTVSS | low polyreactivity
9 | QVQLVESGGGLVQAGGSLRLICAASGRIFGDNGMGWYTQAPGKERELVTYADSVKGRFTISRDNAKNTVYLQMNSLKPEDTAVYYCNKVPPRFSGLDENYWGQGTQVTVSS | low polyreactivity
10 | QVQLVESGGGLVQAGGSLRLSCAASGSIFISYDIGWYRHAPGKETELVAAIRSRVGSTYYADSVKGRFTISRDNAKNTVYLQMKSLKPEDTAVYYCNKDNAVDRLPWFQVTYEYWGQGTQVTVSS | low polyreactivity
11 | QVQLVESGGGLVQAGGSLRLSRAASGFIFSGNAMGWYRKAPGKERELVAVITTSGGSTYYADSVKGRFTISRDNAKNTVYLQMISMKPEDTAVYYCNKPGHRSGPPYDYWGQGTQVSVSS | high polyreactivity
12 | QVQLVESGGGLVQAGGSLRLICAASGSTFGPNGMGWYRQAPGKERELVARIDRIGGGTYYADSVKGRFTISRDNAKNTVYLQMNSLKPEDTAVYYCAADGPSPFIQGYAKGDYWGQGTQVTVSS | low polyreactivity
13 | QVQLVESGGGLVQAGGSLRLSCAASGSTFFEYTMGWYRQAPGKEREFVADIRGRDGSTSYADSVKGRFTISRDNAKNTVYLQMKSLKPEDTAVYYCGADVSDWWSFGNDSWGHGTQVTVSS | low polyreactivity
14 | QVQLVESGGGLVQAGGSLRLSCAASGFTFPHYAMGWYRQAPGKERELVAVISWSGSSTYYADSVKGRFTISRDNAMNTVYLQMNSLKPEDTAVYYCNTRKLYQVDYDYWGQGTQVTVSS | high polyreactivity
15 | QVQLVESGGGLVQAGGSLRLSCAASGITFFPYAMGWYIQAPGKERELVADITWRGGRTYYADSVKGRFTISRDNAKNTVYLQMNSLKPEDTAVYYCAKVARQNWFRYNYDYWGQGTQVTVSS | high polyreactivity
16 | QVQLVESGGGLVQAGGSLRLSCAASGSTLATNAMGWYRQAPGKERELVAYADSVKGRFTISRDNAKNTVYLQMNSLNPEDTAVYYCNVVFRYAYGVYYTPEFYYWGQGTQVTVSS | low polyreactivity
17 | QVQLEESGGGLVQAGGSLRLSCAASGFTIGYNAKGWYRQATRKERELVAAIRSTGSTNYADSVKGRFTISRDYAKNTVYLQMNSLKPEDTAVYYGAAGRNAAIVYDYDYWGQGTQVTVSS | low polyreactivity
18 | QVQLVESGGGLVQAGGSLRLSCAASGSTFGDNAMGWYRQAPGKERELVATITWSDDSTYYADSVKGRFTISRDNAKNTVYLQMNSLKPEDTAFYYCAADVDSYLLIGAVEYDYWGHGTQVTVSS | low polyreactivity
19 | QVQLVESGGGLVQAGGSLRLSCAASGFIFAYNAMGWYRQAPGKERELDAAISRSGGSTRYADSVKGRFTISRDNAKNTVYLQMNSLKPEDTAVYYCNVSRYGYGVGRGLYIYDYWGQGTQVTVSS | high polyreactivity
20 | QVQLLERGGGLVQAGGSLRLSCMASGSILVDRMSWYRQAPGKEHELVATIYDGGITYYADSMTGRFTISRDNAKNTVYLQMIRQRPEDTAVYYCGASFERYRYHVYCGQGTQVTVSS | low polyreactivity
21 | QVQLVESGGGLVQAGGSLRLSCAPSGFIFNRNTMGWYRQAPGKERELVAAISFRGTSTYYADSVKGRFTISRDNAKNTVYLQMNSLKPEDTAVYYCNRARILVWSKYGYWGQGTQVNVSS | high polyreactivity
22 | QVQLVESGGGLVQAGGSLRLSCAASGFIYNKYTMGWYRQAPGKERELVAAIRSSGGSTYYADSVKGRFTISRDNAKNTVYLQMNSLKPEDTAVYYCNALPYQVWKRYSWGQGTQVTVSS | high polyreactivity
23 | QVQLVETGGGLVQAGGSLRLSCAASGSTFVWYDMGRYRQAPGKERELVATITSGGITTYADSVKGRFTISRDNAKNTVYLKMNSLKPEDTAVYYCNADLYYWLRYYDRNDYLGQGTQVTVSS | low polyreactivity
24 | QVQLVESGGGLVQAGGSLRISCAASGRTFCNNAMGWYRQAPGKERELVAAITSTGSRTYYADSVKGRFTISRDNAKNTVYLQMNSLKPEDTAVYYCNRVSHLDYYWGQGTQVTVSS | high polyreactivity
25 | QVQLVESGVGLVQAGGSLRLSCAASGRIFYTYAMGWYRQAPGKERELVAAISSRTGSTYYADSVKGRFTISRDNAKNTVYLQMNSLKPEDTAVYYCAAYLWKSKRKLDYWGQGTQVTVSS | high polyreactivity
26 | QVQVVESGGGLVQAGGSLRLSCAASGSIFATYAMGWYRQAPGKERELVAAITSSDGSTNYADSVKGRFTISRDNAKNTVYLQMNSLKPEDTAVYYCATDAPDRTDSDSGFDAGYDYWGQGTQVTLSS | low polyreactivity
27 | QVQHVESGGGLFQAGGSLRLSCAASGRIFSYYAMGWYRQAPGKERELVAAINWNGGRTYYADSVKGRFTISRDNAKNSVYLQMNSLKPEDTAVYYCNARYSGKYDYWRQGTQVTVSS | high polyreactivity
28 | QVQLVESGGGLVQAGGSLRLSCAASGFTLGSNVMGWYRQAPGKERELVAGISQSGGRTFYADSVKGRFTISRDNAKNTVYLQMNSLKPEDTAVYYCNAYRYYSPYGYWGQGTQVTVSS | low polyreactivity
29 | QVQLVESGGGLVQAGGSLRLSCAASGITFVLYAMGWYRQAPGKERELVAANSSSGGRTYYADSVKGRFTISRDYAKNTVYLQMNSLKPEDTAVYYCAKDTYGFAANRPAGDGYWGQGTQVTVSS | high polyreactivity
30 | QEQLQESGGGLVQAGGSLRLSCAASGTISYAGPMGWYRQAPGKEREFVAGIGVGSNTNYADSVKGRYTIIRDNAKNTVYLQMNSLKPEDTAVYYCAVGGYAPLGRPYWGQGTQVTVSS | low polyreactivity
